PMC11322666 (2024)

B1: UPF3B^WT, Flag tagged [human] / inositol-requiring enzyme-1α (IRE1α), endogenous [human (endogenous in HEK293T and U2OS)] (parent complex)
chain 1: MKEEKEHRPKEKRVTLLTPAGATGSGGGTSGDSSKGEDKQDRNKEKKEALSKVVIRRLPPTLTKEQLQEHLQPMPEHDYFEFFSNDTSLYPHMYARAYINFKNQEDIILFRDRFDGYVFLDNKGQEYPAIVEFAPFQKAAKKKTKKRDTKVGTIDDDPEYRKFLESYATDNEKMTSTPETLLEEIEAKNRELIAKKTTPLLSFLKNKQRMREEKREERRRREIERKRQREEERRKWKEEEKRKRKDIEKLKKIDRIPERDKLKDEPKIKVHRFLLQAVNQKNLLKKPEKGDEKELDKREKAKKLDKENLSDERASGQSCTLPKRSDSELKDEKPKRPEDESGRDYREREREYERDQERILRERERLKRQEEERRRQKERYEKEKTFKRKEEEMKKEKDTLRDKGKKAESTESIGSSEKTEKKEEVVKRDRIRNKDRPAMQLYQPGARSRNRLCPPDDSTKSGDSAAERKQESGISHRKEGGEE
chain 2: IFGSTSTVTLPETLLFVSTLDGSLHAVSKRTGSIKWTLKEDPVLQVPTHVEEPAFLPDPNDGSLYTLGSKNNEGLTKLPFTIPELVQASPCRSSDGILYMGKKQDIWYVIDLLTGEKQQTLSSAFADSLCPSTSLLYLGRTEYTITMYDTKTRELRWNATYFDYAASLPEDDVDYKMSHFVSNGDGLVVTVDSESGDVLWIQNYASPVVAFYVWQREGLRKVMHINVAVETLRYLTFMSGEVGRITKWKYPFPKETEAKSKLTPTLYVGKYSTSLYASPSMVHEGVAVVPRGSTLPLLEGPQTDGVTIGDKGECVITPSTDVKFDPGLKSKNKLNYLRNYWLLIGHHETPLSASTKMLERFPNNLPKHRENVIPADSEKKSFEEVINLVDQTSENAPTTVSRDVEEKPAHAPARPEAPVDSMLKDMATIILSTFLLIGWVAFIITYPLSMHQQQQLQHQQFQKELEKIQLLQQQQQQLPFHPPGDTAQDGELLDTSGPYSESSGTSSPSTSPRASNHSLCSGSSASKAGSSPSLEQDDGDEETSVVIVGKISFCPKDVLGHGAEGTIVYRGMFDNRDVAVKRILPECFSFADREVQLLRESDEHPNVIRYFCTEKDRQFQYIAIELCAATLQEYVEQKDFAHLGLEPITLLQQTTSGLAHLHSLNIVHRDLKPHNILISMPNAHGKIKAMISDFGLCKKLAVGRHSFSRRSGVPGTEGWIAPEMLSEDCKENPTYTVDIFSAGCVFYYVISEGSHPFGKSLQRQANILLGACSLDCLHPEKHEDVIARELIEKMIAMDPQKRPSAKHVLKHPFFWSLEKQLQFFQDVSDRIEKESLDGPIVKQLERGGRAVVKMDWRENITVPLQTDLRKFRTYKGGSVRDLLRAMRNKKHHYRELPAEVRETLGSLPDDFVCYFTSRFPHLLAHTYRAMELCSHERLFQPYYFHEPPEPQPPVTPDAL
B2: UPF3B^WT, Flag tagged [human] / UPF2, endogenous [human (endogenous in HEK293T)] (parent complex)
chain 1: B1 chain 1
chain 2: MPAERKKPASMEEKDSLPNNKEKDCSERRTVSSKERPKDDIKLTAKKEVSKAPEDKKKRLEDDKRKKEDKERKKKDEEKVKAEEESKKKEEEEKKKHQEEERKKQEEQAKRQQEEEAAAQMKEKEESIQLHQEAWERHHLRKELRSKNQNAPDSRPEENFFSRLDSSLKKNTAFVKKLKTITEQQRDSLSHDFNGLNLSKYIAEAVASIVEAKLKISDVNCAVHLCSLFHQRYADFAPSLLQVWKKHFEARKEEKTPNITKLRTDLRFIAELTIVGIFTDKEGLSLIYEQLKNIINADRESHTHVSVVISFCRHCGDDIAGLVPRKVKSAAEKFNLSFPPSEIISPEKQQPFQNLLKEYFTSLTKHLKRDHRELQNTERQNRRILHSKGELSEDRHKQYEEFAMSYQKLLANSQSLADLLDENMPDLPQDKPTPEEHGPGIDIFTPGKPGEYDLEGGIWEDEDARNFYENLIDLKAFVPAILFKDNEKSCQNKESNKDDTKEAKESKENKEVSSPDDLELELENLEINDDTLELEGGDEAEDLTKKLLDEQEQEDEEASTGSHLKLIVDAFLQQLPNCVNRDLIDKAAMDFCMNMNTKANRKKLVRALFIVPRQRLDLLPFYARLVATLHPCMSDVAEDLCSMLRGDFRFHVRKKDQINIETKNKTVRFIGELTKFKMFTKNDTLHCLKMLLSDFSHHHIEMACTLLETCGRFLFRSPESHLRTSVLLEQMMRKKQAMHLDARYVTMVENAYYYCNPPPAEKTVKKKRPPLQEYVRKLLYKDLSKVTTEKVLRQMRKLPWQDQEVKDYVICCMINIWNVKYNSIHCVANLLAGLVLYQEDVGIHVVDGVLEDIRLGMEVNQPKFNQRRISSAKFLGELYNYRMVESAVIFRTLYSFTSFGVNPDGSPSSLDPPEHLFRIRLVCTILDTCGQYFDRGSSKRKLDCFLVYFQRYVWWKKSLEVWTKDHPFPIDIDYMISDTLELLRPKIKLCNSLEESIRQVQDLEREFLIKLGLVNDKDSKDSMTEGENLEEDEEEEEGGAETEEQSGNESEVNEPEEEEGSDNDDDEGEEEEEENTDYLTDSNKENETDEENTEVMIKGGGLKHVPCVEDEDFIQALDKMMLENLQQRSGESVKVHQLDVAIPLHLKSQLRKGPPLGGGEGEAESADTMPFVMLTRKGNKQQFKILNVPMSSQLAANHWNQQQAEQEERMRMKKLTLDINERQEQEDYQEMLQSLAQRPAPANTNRERRPRYQHPKGAPNADLIFKTGGRRR

Variants of: B1
Assay: co-immunoprecipitation (IP: Flag, blot IRE1α), western blot band quantification; HEK293T cells, transfected for 24 h

| ratio to parent | Variant |
| --- | --- |
| 1.15 | chain 1 T169A |
| 0.26 | chain 1 T169D |

Variants of: B1
Assay: co-immunoprecipitation (IP: Flag, blot IRE1α), western blot band quantification; transfected for 24 h

| ratio to parent | Variant |
| --- | --- |
| 1.21 | chain 1 T198D |
| 1.06 | chain 1 T198A |

Variants of: B1
Assay: as above
Remark: another data set of the same source

| ratio to parent | Variant |
| --- | --- |
| 1.22 | chain 1 T197A |
| 1.1 | chain 1 T197D |

Variants of: B1
Assay: co-immunoprecipitation (IP: Flag, blot IRE1α), western blot band quantification; U2OS cells, transfected for 24 h

| ratio to parent | Variant |
| --- | --- |
| 0.17 | chain 1 Y160D |
| 1.29 | chain 1 Y160F |

Variants of: B1
Assay: co-immunoprecipitation (IP: Flag, blot IRE1α), western blot band quantification; HEK293T cells, transfected for 24 h
Remark: another data set of the same source

| ratio to parent | Variant |
| --- | --- |
| 0.21 | chain 1 Y160D |
| 1.28 | chain 1 Y160F |

Variants of: B2
Assay: co-immunoprecipitation (IP: Flag, blot UPF2), western blot band quantification; transfected for 24 h

| ratio to parent | Variant |
| --- | --- |
| 1.11 | chain 1 MKEEKEHRPKEKRVTLLTPAGATGSGGGTSGDSSKGEDKQDRNKEKKEALSKVVIRRLPPTLTKEQLQEHLQPMPEHDYFEFFSNDTSLYPHMYARAYINFKNQEDIILFRDRFDGYVFLDNKGQEYPAIVEFAPFQKAAKKKTKKRDTKVGTIDDDPEYRKFLESYATDNEKMTSTPETLLEEIEAKNRELIAKKDTPLLSFLKNKQRMREEKREERRRREIERKRQREEERRKWKEEEKRKRKDIEKLKKIDRIPERDKLKDEPKIKVHRFLLQAVNQKNLLKKPEKGDEKELDKREKAKKLDKENLSDERASGQSCTLPKRSDSELKDEKPKRPEDESGRDYREREREYERDQERILRERERLKRQEEERRRQKERYEKEKTFKRKEEEMKKEKDTLRDKGKKAESTESIGSSEKTEKKEEVVKRDRIRNKDRPAMQLYQPGARSRNRLCPPDDSTKSGDSAAERKQESGISHRKEGGEE [chain 1 T197D] |
| 1.07 | chain 1 MKEEKEHRPKEKRVTLLTPAGATGSGGGTSGDSSKGEDKQDRNKEKKEALSKVVIRRLPPTLTKEQLQEHLQPMPEHDYFEFFSNDTSLYPHMYARAYINFKNQEDIILFRDRFDGYVFLDNKGQEYPAIVEFAPFQKAAKKKTKKRDTKVGTIDDDPEYRKFLESYATDNEKMTSTPETLLEEIEAKNRELIAKKTDPLLSFLKNKQRMREEKREERRRREIERKRQREEERRKWKEEEKRKRKDIEKLKKIDRIPERDKLKDEPKIKVHRFLLQAVNQKNLLKKPEKGDEKELDKREKAKKLDKENLSDERASGQSCTLPKRSDSELKDEKPKRPEDESGRDYREREREYERDQERILRERERLKRQEEERRRQKERYEKEKTFKRKEEEMKKEKDTLRDKGKKAESTESIGSSEKTEKKEEVVKRDRIRNKDRPAMQLYQPGARSRNRLCPPDDSTKSGDSAAERKQESGISHRKEGGEE [chain 1 T198D] |

Variants of: B2
Assay: as above
Remark: another data set of the same source

| ratio to parent | Variant |
| --- | --- |
| 1.08 | chain 1 MKEEKEHRPKEKRVTLLTPAGATGSGGGTSGDSSKGEDKQDRNKEKKEALSKVVIRRLPPTLTKEQLQEHLQPMPEHDYFEFFSNDTSLYPHMYARAYINFKNQEDIILFRDRFDGYVFLDNKGQEYPAIVEFAPFQKAAKKKTKKRDTKVGTIDDDPEFRKFLESYATDNEKMTSTPETLLEEIEAKNRELIAKKTTPLLSFLKNKQRMREEKREERRRREIERKRQREEERRKWKEEEKRKRKDIEKLKKIDRIPERDKLKDEPKIKVHRFLLQAVNQKNLLKKPEKGDEKELDKREKAKKLDKENLSDERASGQSCTLPKRSDSELKDEKPKRPEDESGRDYREREREYERDQERILRERERLKRQEEERRRQKERYEKEKTFKRKEEEMKKEKDTLRDKGKKAESTESIGSSEKTEKKEEVVKRDRIRNKDRPAMQLYQPGARSRNRLCPPDDSTKSGDSAAERKQESGISHRKEGGEE [chain 1 Y160F] |
| 0.21 | chain 1 MKEEKEHRPKEKRVTLLTPAGATGSGGGTSGDSSKGEDKQDRNKEKKEALSKVVIRRLPPTLTKEQLQEHLQPMPEHDYFEFFSNDTSLYPHMYARAYINFKNQEDIILFRDRFDGYVFLDNKGQEYPAIVEFAPFQKAAKKKTKKRDTKVGTIDDDPEDRKFLESYATDNEKMTSTPETLLEEIEAKNRELIAKKTTPLLSFLKNKQRMREEKREERRRREIERKRQREEERRKWKEEEKRKRKDIEKLKKIDRIPERDKLKDEPKIKVHRFLLQAVNQKNLLKKPEKGDEKELDKREKAKKLDKENLSDERASGQSCTLPKRSDSELKDEKPKRPEDESGRDYREREREYERDQERILRERERLKRQEEERRRQKERYEKEKTFKRKEEEMKKEKDTLRDKGKKAESTESIGSSEKTEKKEEVVKRDRIRNKDRPAMQLYQPGARSRNRLCPPDDSTKSGDSAAERKQESGISHRKEGGEE [chain 1 Y160D] |

Variants of: B2
Assay: as above
Remark: another data set of the same source

| ratio to parent | Variant |
| --- | --- |
| 0.2 | chain 1 MKEEKEHRPKEKRVTLLTPAGATGSGGGTSGDSSKGEDKQDRNKEKKEALSKVVIRRLPPTLTKEQLQEHLQPMPEHDYFEFFSNDTSLYPHMYARAYINFKNQEDIILFRDRFDGYVFLDNKGQEYPAIVEFAPFQKAAKKKTKKRDTKVGTIDDDPEYRKFLESYADDNEKMTSTPETLLEEIEAKNRELIAKKTTPLLSFLKNKQRMREEKREERRRREIERKRQREEERRKWKEEEKRKRKDIEKLKKIDRIPERDKLKDEPKIKVHRFLLQAVNQKNLLKKPEKGDEKELDKREKAKKLDKENLSDERASGQSCTLPKRSDSELKDEKPKRPEDESGRDYREREREYERDQERILRERERLKRQEEERRRQKERYEKEKTFKRKEEEMKKEKDTLRDKGKKAESTESIGSSEKTEKKEEVVKRDRIRNKDRPAMQLYQPGARSRNRLCPPDDSTKSGDSAAERKQESGISHRKEGGEE [chain 1 T169D] |
| 1.1 | chain 1 MKEEKEHRPKEKRVTLLTPAGATGSGGGTSGDSSKGEDKQDRNKEKKEALSKVVIRRLPPTLTKEQLQEHLQPMPEHDYFEFFSNDTSLYPHMYARAYINFKNQEDIILFRDRFDGYVFLDNKGQEYPAIVEFAPFQKAAKKKTKKRDTKVGTIDDDPEYRKFLESYAADNEKMTSTPETLLEEIEAKNRELIAKKTTPLLSFLKNKQRMREEKREERRRREIERKRQREEERRKWKEEEKRKRKDIEKLKKIDRIPERDKLKDEPKIKVHRFLLQAVNQKNLLKKPEKGDEKELDKREKAKKLDKENLSDERASGQSCTLPKRSDSELKDEKPKRPEDESGRDYREREREYERDQERILRERERLKRQEEERRRQKERYEKEKTFKRKEEEMKKEKDTLRDKGKKAESTESIGSSEKTEKKEEVVKRDRIRNKDRPAMQLYQPGARSRNRLCPPDDSTKSGDSAAERKQESGISHRKEGGEE [chain 1 T169A] |
